From the Human Domainome abundance scans (Beltran et al. 2025)
± gives the uncertainty stated by the source.

B1: Syntaxin-binding protein 4, residues 493 to 538; numbered along this chain, Q6ZWJ1 (parent)
chain: LDMDCLPYGWEEAYTADGIKYFINHVTQTTSWIHPVMSVLNLSRSE

Variants of: B1
Assay: abundance fitness (aPCA) (normalised: wild type 0, dead -1); higher = more abundant; growth selection in yeast, the domain comes from the species named
Conditions: Homo sapiens

Abundance fitness, by site and new letter:
T27: P -0.772 ± 0.14; L 0.644 ± 0.091
H25: T 0.033 ± 0.18; F -0.514 ± 0.35; K 0.25 ± 0.15; M -0.94 ± 0.22; Y -0.941 ± 0.21; E -0.502 ± 0.13; P -0.236 ± 0.19; A -0.927 ± 0.12; D -1.1 ± 0.22; L -0.931 ± 0.15; G -0.687 ± 0.091; I -0.754 ± 0.27; N 0.599 ± 0.34; C -0.824 ± 0.18; S -0.006 ± 0.11; R 0.108 ± 0.085; W -0.916 ± 0.14; V -0.67 ± 0.11
T30: V -0.691 ± 0.096; D -0.859 ± 0.14; E -0.857 ± 0.13; P -0.857 ± 0.17; Y -1 ± 0.32; N -0.727 ± 0.25; I -0.936 ± 0.16; L -0.512 ± 0.096; G -0.632 ± 0.085; C -0.142 ± 0.14; F -0.998 ± 0.26; R -0.719 ± 0.093; S 0.363 ± 0.086; Q -0.624 ± 0.12; K -0.692 ± 0.15
S31: W -0.922 ± 0.14; D -0.89 ± 0.19; C -0.698 ± 0.15; P -0.788 ± 0.13; N -0.953 ± 0.19; T 0.199 ± 0.09; Y -0.879 ± 0.18; V -0.373 ± 0.097; K -0.471 ± 0.12; I -0.633 ± 0.16; R -0.818 ± 0.1; H -0.94 ± 0.18; L -0.788 ± 0.11; M -0.989 ± 0.14; F -0.734 ± 0.12; G -0.454 ± 0.1; A -0.799 ± 0.12; E -0.724 ± 0.16
I33: W -0.743 ± 0.13; D 0.272 ± 0.15; M -0.091 ± 0.15; G -0.199 ± 0.088; H -0.084 ± 0.14; P -0.897 ± 0.15; N -0.243 ± 0.19; F -0.549 ± 0.22; Q 0.064 ± 0.14; A -0.248 ± 0.1; E 0.511 ± 0.12; S 0.1 ± 0.1; K -0.276 ± 0.13; R -0.481 ± 0.094; C 0.031 ± 0.12; T -0.075 ± 0.12; Y -0.162 ± 0.17; L -0.245 ± 0.089
I23: E -1.08 ± 0.18; P -0.4 ± 0.11; F -0.715 ± 0.19; H -0.833 ± 0.42; T -0.786 ± 0.16; C -0.892 ± 0.15; R -0.241 ± 0.081; Q -0.829 ± 0.18; L -0.57 ± 0.099; A -0.781 ± 0.12; V 0.023 ± 0.098; G -0.889 ± 0.092; Y -0.209 ± 0.16; D -0.731 ± 0.28; K -0.282 ± 0.14; W -0.811 ± 0.12; N -0.708 ± 0.3; M -0.733 ± 0.18; S -0.49 ± 0.1
N24: C -0.798 ± 0.16; S -0.93 ± 0.14; Y -0.638 ± 0.23; F -0.835 ± 0.21; D -0.668 ± 0.21; W -0.609 ± 0.13; M -0.978 ± 0.27; P -0.837 ± 0.17; T -0.909 ± 0.18; E -0.715 ± 0.14; V -0.74 ± 0.11; R -0.876 ± 0.12; H -0.282 ± 0.14; G -0.72 ± 0.092; Q -0.923 ± 0.2; L -0.932 ± 0.16; K -1.12 ± 0.28
L40: G 0.164 ± 0.085; A -0.127 ± 0.11; F -0.304 ± 0.14; C -0.154 ± 0.11; H 0.07 ± 0.19; D -0.471 ± 0.17; E 0.111 ± 0.11
Q28: N 0.159 ± 0.12; E -0.525 ± 0.12; M 0.031 ± 0.14; S -0.312 ± 0.091; P -0.793 ± 0.14; H -0.204 ± 0.13; A -0.509 ± 0.11; R -0.316 ± 0.086; I -0.664 ± 0.16; F -0.422 ± 0.14; V -0.789 ± 0.098; W -0.695 ± 0.13; C -0.573 ± 0.13; D -0.467 ± 0.13; T -0.81 ± 0.13; L -1 ± 0.13; K -0.027 ± 0.13; G 0.294 ± 0.075
W32: C -0.346 ± 0.12; Y -0.33 ± 0.17; M -0.151 ± 0.12; V -0.787 ± 0.12; R -0.408 ± 0.085; K -0.576 ± 0.12; S -0.679 ± 0.11; N -0.342 ± 0.25; P -0.581 ± 0.14; A -0.787 ± 0.11; E -0.628 ± 0.12; G -0.664 ± 0.089; L -0.49 ± 0.097; F -0.558 ± 0.16; H -1.09 ± 0.29; Q -0.86 ± 0.25; T -0.872 ± 0.15; D -0.539 ± 0.16
Y21: E -0.953 ± 0.14; M -1.03 ± 0.17; T -0.93 ± 0.14; W -0.674 ± 0.099; K -0.923 ± 0.17; A -0.952 ± 0.12; F -0.91 ± 0.24; S -0.778 ± 0.11; V -0.998 ± 0.11; C -0.908 ± 0.14; D -0.989 ± 0.18; G -0.873 ± 0.092; Q -0.544 ± 0.13; I -0.894 ± 0.36; R -0.962 ± 0.1; N -0.731 ± 0.19; H -1.05 ± 0.22
